Measurements taken from PMC8294582.

B1: truncated form of human WT SETD2, FLAG-tagged (tSETD2-FLAG, aa1418–2564), Q9BYW2 H2514A (protein)
chain: DGELQDRKKVRVEVEQGETSVPPGSALVGPSCVMDDFRDPQRWKECAKQGKMPCYFDLIEENVYLTERKKNKSHRDIKRMQCECTPLSKDERAQGEIACGEDCLNRLLMIECSSRCPNGDYCSNRRFQRKQHADVEVILTEKKGWGLRAAKDLPSNTFVLEYCGEVLDHKEFKARVKEYARNKNIHYYFMALKNDEIIDATQKGNCSRFMNHSCEPNCETQKWTVNGQLRVGFFTTKLVPSGSELTFDYQFQRYGKEAQKCFCGSANCRGYLGGENRVSIRAAGGKMKKERSRKKDSVDGELEALMENGEGLSDKNQVLSLSRLMVRIETLEQKLTCLELIQNTHSQSCLKSFLERHGLSLLWIWMAELGDGRESNQKLQEEIIKTLEHLPIPTKNMLEESKVLPIIQRWSQTKTAVPPLSEGDGYSSENTSRAHTPLNTPDPSTKLSTEADTDTPKKLMFRRLKIISENSMDSAISDATSELEGKDGKEDLDQLENVPVEEEEELQSQQLLPQQLPECKVDSETNIEASKLPTSEPEADAEIEPKESNGTKLEEPINEETPSQDEEEGVSDVESERSQEQPDKTVDISDLATKLLDSWKDLKEVYRIPKKSQTEKENTTTERGRDAVGFRDQTPAPKTPNRSRERDPDKQTQNKEKRKRRSSLSPPSSAYERGTKRPDDRYDTPTSKKKVRIKDRNKLSTEERRKLFEQEVAQREAQKQQQQMQNLGMTSPLPYDSLGYNAPHHPFAGYPPGYPMQAYVDPSNPNAGKVLLPTPSMDPVCSPAPYDHAQPLVGHSTEPLSAPPPVPVVPHVAAPVEVSSSQYVAQSDGVVHQDSSVAVLPVPAPGPVQGQNYSVWDSNQQSVSVQQQYSPAQSQATIYYQGQTCPTVYGVTSPYSQTTPPIVQSYAQPSLQYIQGQQIFTAHPQGVVVQPAAAVTTIVAPGQPQPLQPSEMVVTNNLLDLPPPSPPKPKTIVLPPNWKTARDPEGKIYYYHVITRQTQWDPPTWESPGDDASLEHEAEMDLGTPTYDENPMKASKKPKTAEADTSSELAKKSKEVFRKEMSQFIVQCLNPYRKPDCKVGRITTTEDFKHLARKLTAGVMNKELKYCKNPEDLECNENVKHKTKEYIKKYMQKFGAVYKPKEDTELE
B2: truncated form of human WT SETD2, FLAG-tagged (tSETD2-FLAG, aa1418–2564), Q9BYW2 R2510H (protein)
chain: DGELQDRKKVRVEVEQGETSVPPGSALVGPSCVMDDFRDPQRWKECAKQGKMPCYFDLIEENVYLTERKKNKSHRDIKRMQCECTPLSKDERAQGEIACGEDCLNRLLMIECSSRCPNGDYCSNRRFQRKQHADVEVILTEKKGWGLRAAKDLPSNTFVLEYCGEVLDHKEFKARVKEYARNKNIHYYFMALKNDEIIDATQKGNCSRFMNHSCEPNCETQKWTVNGQLRVGFFTTKLVPSGSELTFDYQFQRYGKEAQKCFCGSANCRGYLGGENRVSIRAAGGKMKKERSRKKDSVDGELEALMENGEGLSDKNQVLSLSRLMVRIETLEQKLTCLELIQNTHSQSCLKSFLERHGLSLLWIWMAELGDGRESNQKLQEEIIKTLEHLPIPTKNMLEESKVLPIIQRWSQTKTAVPPLSEGDGYSSENTSRAHTPLNTPDPSTKLSTEADTDTPKKLMFRRLKIISENSMDSAISDATSELEGKDGKEDLDQLENVPVEEEEELQSQQLLPQQLPECKVDSETNIEASKLPTSEPEADAEIEPKESNGTKLEEPINEETPSQDEEEGVSDVESERSQEQPDKTVDISDLATKLLDSWKDLKEVYRIPKKSQTEKENTTTERGRDAVGFRDQTPAPKTPNRSRERDPDKQTQNKEKRKRRSSLSPPSSAYERGTKRPDDRYDTPTSKKKVRIKDRNKLSTEERRKLFEQEVAQREAQKQQQQMQNLGMTSPLPYDSLGYNAPHHPFAGYPPGYPMQAYVDPSNPNAGKVLLPTPSMDPVCSPAPYDHAQPLVGHSTEPLSAPPPVPVVPHVAAPVEVSSSQYVAQSDGVVHQDSSVAVLPVPAPGPVQGQNYSVWDSNQQSVSVQQQYSPAQSQATIYYQGQTCPTVYGVTSPYSQTTPPIVQSYAQPSLQYIQGQQIFTAHPQGVVVQPAAAVTTIVAPGQPQPLQPSEMVVTNNLLDLPPPSPPKPKTIVLPPNWKTARDPEGKIYYYHVITRQTQWDPPTWESPGDDASLEHEAEMDLGTPTYDENPMKASKKPKTAEADTSSELAKKSKEVFRKEMSQFIVQCLNPYRKPDCKVGRITTTEDFKHLAHKLTHGVMNKELKYCKNPEDLECNENVKHKTKEYIKKYMQKFGAVYKPKEDTELE
B3: truncated form of human WT SETD2, FLAG-tagged (tSETD2-FLAG, aa1418–2564), Q9BYW2 V2483A (protein)
chain: DGELQDRKKVRVEVEQGETSVPPGSALVGPSCVMDDFRDPQRWKECAKQGKMPCYFDLIEENVYLTERKKNKSHRDIKRMQCECTPLSKDERAQGEIACGEDCLNRLLMIECSSRCPNGDYCSNRRFQRKQHADVEVILTEKKGWGLRAAKDLPSNTFVLEYCGEVLDHKEFKARVKEYARNKNIHYYFMALKNDEIIDATQKGNCSRFMNHSCEPNCETQKWTVNGQLRVGFFTTKLVPSGSELTFDYQFQRYGKEAQKCFCGSANCRGYLGGENRVSIRAAGGKMKKERSRKKDSVDGELEALMENGEGLSDKNQVLSLSRLMVRIETLEQKLTCLELIQNTHSQSCLKSFLERHGLSLLWIWMAELGDGRESNQKLQEEIIKTLEHLPIPTKNMLEESKVLPIIQRWSQTKTAVPPLSEGDGYSSENTSRAHTPLNTPDPSTKLSTEADTDTPKKLMFRRLKIISENSMDSAISDATSELEGKDGKEDLDQLENVPVEEEEELQSQQLLPQQLPECKVDSETNIEASKLPTSEPEADAEIEPKESNGTKLEEPINEETPSQDEEEGVSDVESERSQEQPDKTVDISDLATKLLDSWKDLKEVYRIPKKSQTEKENTTTERGRDAVGFRDQTPAPKTPNRSRERDPDKQTQNKEKRKRRSSLSPPSSAYERGTKRPDDRYDTPTSKKKVRIKDRNKLSTEERRKLFEQEVAQREAQKQQQQMQNLGMTSPLPYDSLGYNAPHHPFAGYPPGYPMQAYVDPSNPNAGKVLLPTPSMDPVCSPAPYDHAQPLVGHSTEPLSAPPPVPVVPHVAAPVEVSSSQYVAQSDGVVHQDSSVAVLPVPAPGPVQGQNYSVWDSNQQSVSVQQQYSPAQSQATIYYQGQTCPTVYGVTSPYSQTTPPIVQSYAQPSLQYIQGQQIFTAHPQGVVVQPAAAVTTIVAPGQPQPLQPSEMVVTNNLLDLPPPSPPKPKTIVLPPNWKTARDPEGKIYYYHVITRQTQWDPPTWESPGDDASLEHEAEMDLGTPTYDENPMKASKKPKTAEADTSSELAKKSKEVFRKEMSQFIAQCLNPYRKPDCKVGRITTTEDFKHLARKLTHGVMNKELKYCKNPEDLECNENVKHKTKEYIKKYMQKFGAVYKPKEDTELE
B4: truncated form of human WT SETD2, FLAG-tagged (tSETD2-FLAG, aa1418–2564), Q9BYW2 F2505A (protein)
chain: DGELQDRKKVRVEVEQGETSVPPGSALVGPSCVMDDFRDPQRWKECAKQGKMPCYFDLIEENVYLTERKKNKSHRDIKRMQCECTPLSKDERAQGEIACGEDCLNRLLMIECSSRCPNGDYCSNRRFQRKQHADVEVILTEKKGWGLRAAKDLPSNTFVLEYCGEVLDHKEFKARVKEYARNKNIHYYFMALKNDEIIDATQKGNCSRFMNHSCEPNCETQKWTVNGQLRVGFFTTKLVPSGSELTFDYQFQRYGKEAQKCFCGSANCRGYLGGENRVSIRAAGGKMKKERSRKKDSVDGELEALMENGEGLSDKNQVLSLSRLMVRIETLEQKLTCLELIQNTHSQSCLKSFLERHGLSLLWIWMAELGDGRESNQKLQEEIIKTLEHLPIPTKNMLEESKVLPIIQRWSQTKTAVPPLSEGDGYSSENTSRAHTPLNTPDPSTKLSTEADTDTPKKLMFRRLKIISENSMDSAISDATSELEGKDGKEDLDQLENVPVEEEEELQSQQLLPQQLPECKVDSETNIEASKLPTSEPEADAEIEPKESNGTKLEEPINEETPSQDEEEGVSDVESERSQEQPDKTVDISDLATKLLDSWKDLKEVYRIPKKSQTEKENTTTERGRDAVGFRDQTPAPKTPNRSRERDPDKQTQNKEKRKRRSSLSPPSSAYERGTKRPDDRYDTPTSKKKVRIKDRNKLSTEERRKLFEQEVAQREAQKQQQQMQNLGMTSPLPYDSLGYNAPHHPFAGYPPGYPMQAYVDPSNPNAGKVLLPTPSMDPVCSPAPYDHAQPLVGHSTEPLSAPPPVPVVPHVAAPVEVSSSQYVAQSDGVVHQDSSVAVLPVPAPGPVQGQNYSVWDSNQQSVSVQQQYSPAQSQATIYYQGQTCPTVYGVTSPYSQTTPPIVQSYAQPSLQYIQGQQIFTAHPQGVVVQPAAAVTTIVAPGQPQPLQPSEMVVTNNLLDLPPPSPPKPKTIVLPPNWKTARDPEGKIYYYHVITRQTQWDPPTWESPGDDASLEHEAEMDLGTPTYDENPMKASKKPKTAEADTSSELAKKSKEVFRKEMSQFIVQCLNPYRKPDCKVGRITTTEDAKHLARKLTHGVMNKELKYCKNPEDLECNENVKHKTKEYIKKYMQKFGAVYKPKEDTELE

These binders were tested against RNA polymerase II, P24928 (assay: coimmunoprecipitation (anti-FLAG beads, Western blot quantification)). Details: chain shown with the change; tSETD2-FLAG on anti-Flag beads incubated with HEK293 cell lysate; parent: est. 82; read off a plot.
With B1 the response (% of input bound) was 17.
B2 showed a response (% of input bound) of 84.
In the case of B3, the response (% of input bound) is reported as 76.
Work on B4 yielded a response (% of input bound) of 12.
